Test results: patent US20130184223A1, “METHODS AND COMPOSITIONS RELATED TO MODULATING AUTOPHAGY” (UNIVERSITY OF ROCHESTER, priority 2010, published 2013)
Entries after “also recorded” stand apart in the source; their conditions may differ.

B1: Rab5a DN: 3× Flag-tagged Rab5a S34N dominant negative mutant, inhibitor of endocytosis (protein, UniProt P20339 1-215, looked up, variant S34N)
Ras-related protein Rab-5A: MASRGATRPNGPNTGNKICQFKLVLLGESAVGKNSLVLRFVKGQFHEFQESTIGAAFLTQTVCLDDTTVKFEIWDTAGQERYHSLAPMYYRGAQAAIVVYDITNEESFARAKNWVKELQRQASPNIVIALSGNKADLANKRAVDFQEAQSYADDNSLLFMETSAKTSMNVNEIFMAIAKKLPKNEPQNPGANSARGRGVDLTEPTQPTRNQCCSN
modifications: 3x Flag tag
B2: Atg12: over-expressed 3× Flag-tagged Atg12, a gene required for autophagosomal formation (protein, UniProt O94817 1-140, looked up)
Ubiquitin-like protein ATG12: MAEEPQSVLQLPTSIAAGGEGLTDVSPETTTPEPPSSAAVSPGTEEPAGDTKKKIDILLKAVGDTPIMKTKKWAVERTRTIQGLIDFIKKFLKLVASEQLFIYVNQSFAPSPDQEVGTLYECFGSDGKLVLHYCKSQAWG
modifications: 3x Flag tag
notes: over-expressed 3× Flag-tagged Atg12, a gene required for autophagosomal formation

Key:
[1] = test system: mp53/Ras transformed cells and CAPAN-2 cells; test: Immunoblot of p62 and LC3 in cells expressing autophagy modulators; format: cell-based; settings: cells expressing the protein vs vector control
From the text: Thus, the effects of Plac8 KD on both tumor formation and autophagy can be suppressed by constitutive activation of Rab7.
(§1) Moreover, the molecular machinery employed in autophagosomal/lysosomal fusion, such as Rab7, is required for endosomal/lysosomal fusion, which is also required for tumor formation in some cancers.
To determine if the Plac8 KD-induced loss of tumor formation is specifically due to a loss of autophagy completion, Atg12, a gene required for autophagosomal formation, was overexpressed in Plac8 KD cells.
YAMC, vector, mp53, Ras, and mp53/Ras cells were cultured for two days at 39 C in RPMI with 10% FBS medium and gentamicin in collagen-I coated 15 cm dishes. HT-29, CAPAN-2, PANC-1 and Panc 10.05 cells were cultured for two days at 37 C in maintenance media without selective antibiotics on 15 cm dishes. […] Protein concentration was quantified using Bradford reagent (BioRad) and a Genesys 1 0UV spectrophotometer (Spectronic Unicam). […]

[2] = test system: mp53/Ras transformed cells and CAPAN-2 cells; test: Immunocompromised mouse tumorigenicity assay, cells expressing autophagy modulators; format: in vivo; settings: cells expressing the protein or shRNA vs vector control, 5×10^5 cells per injection, 4 weeks mp53/Ras, 5 weeks CAPAN-2
Protocol: To determine whether cooperative up-regulation of autophagy is required for tumorigenesis Atg12, a gene involved in autophagosome formation, was knocked-down using two independent constructs in mp53/RasV12 and Capan-2 cells. In addition, a genetic rescue experiment was performed by introducing a shRNA resistant form of ATG12 into these cell backgrounds to test for ATG12 specificity of the observed effects. Tumor formation was inhibited by Atg12 KD in both mp53/Ras and CAPAN-2 cell lines and was rescued by expression of the exogenous shRNA resistant Atg12 (FIG. 4.5a, 4.5c).
Cells were cultured on 15 cm dishes for two days without selective antibiotics at 39 C for mp53/Ras cells and at 37 C for HT-29, CAPAN-2, PANC-1, and 5 Panc10.05. Cells were plated at the following densities: mp53/Ras—7.5×10^5, HT-29 —1.5×10^6, CAPAN-2 —4×10^6, PANC—4×10^6, and PANC 10.05—2×10^6. Cells were trypsinized, counted and re-suspended in RPMI medium lacking supplements for mp53/Ras, CAPAN-2, and Panc10.05, and DMEM lacking supplements for HT-29 and PANC-1 at a density of 5×10^5/100 ul for mp53/Ras and CAPAN-2 cells, 1.25×10^5/100 ul for HT-29 cells, 5×10^6/100 ul for PANC-1, 2×10^6/100 ul for Panc10.05. Matrigel (BD biosciences) was mixed with PANC-1 and Panc10.05 cell/medium mixture at a 1:1 ratio. Cell mixtures were then injected intra-dermally, bilaterally into the flanks of CD1-Foxn1 nude mice (Uracell) […]) in the following numbers: mp53/Ras cells, HT29 1.25×10^5 cells, 5×10^5 CAPAN-2-cells. Cell mixtures were injected intradermally, bilaterally into the flanks of NOD/SCID (UCAR-20060-166 (1)) mice in the following cell numbers per injection: PANC-1 —2.5×10^6 cells and Panc10.05 —1×10^6 cells. Tumor volume was measured every week for 4 weeks for mp53/Ras and HT-29 cells, 5 weeks for CAPAN-2 cells, and 6 weeks for PANC-1.

[3] = test system: mp53/Ras transformed and CAPAN-2 cells; test: Endocytosis of fluorescently labeled dextran; format: cell-based; settings: 50 uM Alexa-488 dextran for 1 hr; confocal microscopy and FACS
Protocol: as §1
Cells were plated at 2.5×10^5 cells for vector and Rab5a DN mp53/Ras cells on collagen-I coated 10 cm dishes, and 7.5×10^5 cells for vector and Rab5a DN CAPAN-2 cells on 10 cm dishes and allowed to proliferate for two days in maintenance media. Cells were then treated with 50 uM of Alexa-488 labeled 10,000 MW dextran (Invitrogen) for 1 hr in maintenance medium. The cells were then washed 3× with PBS and trypsinized. Cells were pelleted, resuspended in PBS with 1% BSA, transferred to FACS tubes (Falcon), and placed on ice. DAPI was added to a final concentration of […] and cells were FACS analyzed for Alexa-488 signal, with DAPI exclusion of dead cells. To image cells mp53/Ras and CAPAN-2 cells infected with vector control virus or stabily expressing Rab5a DN were plated onto glass coverslips as described in the immunofluorescent staining of cells section. Cells were then treated with 50 uM of Alexa-488 labeled 10,000 MW dextran for 1 hr in maintenance medium. The media containing dextran was removed and the cells were washed 3 times with PBS. […]

Molecule | p62 and LC3 protein levels [1] | tumor formation in nude mice [2] | tumor formation in nude mice ([2]; listed as DN Rab5a) | endocytosis of Alexa488 labeled dextran [3]
B1 | no effect on p62 or LC3 levels | increased tumor size over vector control | slightly enhanced tumor formation in transformed YAMC cells and no effect on Capan-2 cells | inhibits endocytosis of Alexa488 labeled dextran
B2 | p62 and LC3 protein levels were suppressed | tumor inhibitory; also recorded: inhibits tumor formation |  | 
